The results in this text go back to patent US20120184713.

Data set [1] concerns the target T1, Peptide2, OPN-ASARM derivative with all five Ser residues replaced by Ala.
T1 chain: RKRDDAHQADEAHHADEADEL

Data set [2] addresses T2, BSP:FLAG (FLAG epitope-tagged mouse bone sialoprotein, affinity purified), Q61711.
T2 chain: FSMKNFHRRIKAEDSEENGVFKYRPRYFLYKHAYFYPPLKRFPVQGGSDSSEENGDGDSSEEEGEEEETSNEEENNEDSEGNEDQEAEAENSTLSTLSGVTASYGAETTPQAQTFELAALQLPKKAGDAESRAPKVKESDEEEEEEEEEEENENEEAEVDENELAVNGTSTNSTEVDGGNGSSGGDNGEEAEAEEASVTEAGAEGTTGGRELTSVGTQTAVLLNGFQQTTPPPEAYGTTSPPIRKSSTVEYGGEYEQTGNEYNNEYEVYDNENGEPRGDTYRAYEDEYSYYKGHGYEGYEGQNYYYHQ

Data set [3] deals with T3, Peptide4, OPN-ASARM derivative with the other two Ser residues changed to Ala.
T3 chain: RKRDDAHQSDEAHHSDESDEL

Data set [4] has as its target T4, Peptide3, OPN-ASARM derivative with the three G-CK consensus Ser residues changed to Ala.
T4 chain: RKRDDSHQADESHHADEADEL

Data set [5] deals with dephosphorylated alpha-Casein (Sigma).
The target of data set [6] is OPN:FLAG (FLAG epitope-tagged mouse osteopontin, affinity purified), P10923.
Data set [7] concerns the target T5, DMP1:FLAG (FLAG epitope-tagged mouse dentin matrix protein 1, affinity purified), O55188.
T5 chain: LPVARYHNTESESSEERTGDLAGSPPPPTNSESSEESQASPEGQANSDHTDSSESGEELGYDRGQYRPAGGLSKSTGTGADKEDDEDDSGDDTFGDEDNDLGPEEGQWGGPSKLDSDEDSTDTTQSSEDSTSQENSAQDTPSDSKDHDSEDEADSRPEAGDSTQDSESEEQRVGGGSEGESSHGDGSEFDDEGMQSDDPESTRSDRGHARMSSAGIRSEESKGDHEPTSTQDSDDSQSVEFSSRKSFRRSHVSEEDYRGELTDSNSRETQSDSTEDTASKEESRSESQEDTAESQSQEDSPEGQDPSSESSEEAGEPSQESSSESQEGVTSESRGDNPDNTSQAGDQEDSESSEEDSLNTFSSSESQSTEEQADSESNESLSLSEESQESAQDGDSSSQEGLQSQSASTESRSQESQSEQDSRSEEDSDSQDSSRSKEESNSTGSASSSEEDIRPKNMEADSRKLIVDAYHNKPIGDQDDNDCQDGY

The target in data set [8] is Myelin Basic Protein (NEB).
Data set [9] deals with T6, Fat2-3:FLAG (affinity-purified cadherin domains of Drosophila Fat), P33450.
T6 chain: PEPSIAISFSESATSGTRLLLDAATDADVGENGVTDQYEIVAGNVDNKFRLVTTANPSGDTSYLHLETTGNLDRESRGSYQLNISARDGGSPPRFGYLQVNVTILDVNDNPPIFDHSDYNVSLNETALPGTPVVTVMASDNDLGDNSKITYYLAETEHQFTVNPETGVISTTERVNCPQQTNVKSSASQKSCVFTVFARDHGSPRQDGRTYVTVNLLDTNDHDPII

Data set [10] concerns the target T7, Peptide1, OPN-ASARM peptide (human Osteopontin 115Asp to 132Leu with N-terminal Arg-Lys-Arg).
T7 chain: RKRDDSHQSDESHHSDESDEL

Chain of OPN:FLAG (FLAG epitope-tagged mouse osteopontin, affinity purified), P10923 (P10923 17-294): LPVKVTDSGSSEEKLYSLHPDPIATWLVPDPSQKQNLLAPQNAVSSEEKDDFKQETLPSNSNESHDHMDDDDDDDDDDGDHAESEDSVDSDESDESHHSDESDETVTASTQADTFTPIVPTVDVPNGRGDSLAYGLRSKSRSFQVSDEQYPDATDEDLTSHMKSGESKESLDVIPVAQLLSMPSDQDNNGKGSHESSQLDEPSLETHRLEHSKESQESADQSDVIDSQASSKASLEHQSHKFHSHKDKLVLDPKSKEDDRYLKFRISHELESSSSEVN

B1: FAM20C:V5 (V5-epitope tagged mouse FAM20C, affinity purified from conditioned medium of HEK293T cells) (protein)
chain: DFSSDPASNLTSHSLEKLPSAAEPVDHAPRGQEPRSPPPRDPAHRPLLRDPGPRPRVPPPGPSGDGSLLAKLFEHPLYQGAVPPLTEDDVLFNVNSDIRFNPKAAENPDWPHEGAEGAEFLPTGEAAVNLYPNWLKFHIGINRYELYSRHNPAIDALLRDLGSQKITSVAMKSGGTQLKLIMTFQNYGQALFKPMKQTREQETPPDFFYFSDYERHNAEIAAFHLDRILDFRRVPPVAGRMINMTKEIRDVTRDKKLWRTFFVSPANNICFYGECSYYCSTEHALCGRPDQIEGSLAAFLPDLSLAKRKTWRNPWRRSYHKRKKAEWEVDPDYCEEVKQTPPYDSGHRILDIMDMTVFDFLMGNMDRHHYETFEKFGNETFIIHLDNGRGFGKYSHDELSILAPLHQCCRIRRSTYLRLQLLAKEEHKLSLLMAESLQHDKVAPVLYQLHLEALDRRLRIVLQAVRDCVEKDGLSSVVEDDLATEHRASTER
As for B1, the “in vitro kinase assay with peptide substrate” value in [1] is “a derivative with all five Ser residues replaced by Ala (OPN-ASARM^5S-A) was not phosphorylated”; in data set [3] it was “a derivative in which the other two Ser residues were changed to Ala (OPN-ASARM^2S-A) was still efficiently phosphorylated by FAM20C”; in [4], “A peptide in which only the three G-CK concensus sites were changed to Ala (OPN-ASARM^3S-A) was phosphorylated much less effectively”; in data set [10] it was “In vitro kinase reactions confirmed that OPN-ASARM is a FAM20C substrate”. For the same protein, the “in vitro kinase assay (32P transfer)” value is “Transfer of ^32P onto OPN, BSP, and DMP1 was observed in the presence of FAM20C:V5” in data set [2]; “Dephosphorylated Casein was phosphorylated by purified FAM20C in vitro” in data set [5]; “Transfer of ^32P onto OPN, BSP, and DMP1 was observed in the presence of FAM20C:V5” in data set [6]; “Transfer of ^32P onto OPN, BSP, and DMP1 was observed in the presence of FAM20C:V5” in data set [7]; “neither Myelin basic protein ... nor cadherin domains of Fat ... were detectably phosphorylated by FAM20C” in data set [8]; “neither Myelin basic protein ... nor cadherin domains of Fat that are substrates for Fj, were detectably phosphorylated by FAM20C” in data set [9]. Moreover, the “Michaelis constant (Km), in vitro kinase assay” value in data set [5] is listed as “a Michaelis constant (Km) of FAM20C for Casein of 1.5 µM”.
